From patent US20140178333A1

Molecular target: IL-28 receptor (IL-28 receptor alpha subunit with endogenous CRF2-4) on transfected 293 HEK cells (human)
Test: cell-based or functional assay

IL-28 receptor (IL-28 receptor alpha subunit with endogenous CRF2-4) on transfected 293 HEK cells (human), sequence (Q8IU57 21-520): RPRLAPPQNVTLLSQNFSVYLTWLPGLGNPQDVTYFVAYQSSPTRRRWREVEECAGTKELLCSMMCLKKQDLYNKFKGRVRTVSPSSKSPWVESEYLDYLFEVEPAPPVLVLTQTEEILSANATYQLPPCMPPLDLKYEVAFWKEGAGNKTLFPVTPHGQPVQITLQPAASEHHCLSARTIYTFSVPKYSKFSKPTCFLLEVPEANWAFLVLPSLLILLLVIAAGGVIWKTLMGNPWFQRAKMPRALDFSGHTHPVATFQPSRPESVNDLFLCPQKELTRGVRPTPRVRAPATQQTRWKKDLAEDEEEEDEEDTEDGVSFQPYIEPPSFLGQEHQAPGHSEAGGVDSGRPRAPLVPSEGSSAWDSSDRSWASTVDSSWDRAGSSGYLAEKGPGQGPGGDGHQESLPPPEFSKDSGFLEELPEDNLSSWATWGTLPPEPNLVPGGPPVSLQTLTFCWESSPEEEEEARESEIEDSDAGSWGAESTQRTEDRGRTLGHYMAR

ISRE-luciferase fold induction over medium alone, 293 HEK cells transfected with ISRE-Luc. and IL-28R; ligand 100 ng/ml (fold induction)	ISRE-luciferase fold induction over medium alone, 293 HEK cells transfected with ISRE-Luc. and IL-28R; ligand 125 ng/ml (fold induction)	Substance
0.5	–	HuIL10 (from UniProt P22301 19-178) (ligand)
–	104	IL-28B (SEQ ID NO:6) (from UniProt Q8IZI9 22-196) (ligand)
–	1	Zcyto10 (from UniProt Q9NYY1 25-176) (ligand)
